Molecular target: the molecule itself
Assay: crystal structure

B1: SalC (enzyme, Salinispora tropica CNB440)
chain: MSEAVERNYDPGDVAIIGASCRFPGARNKEQYWDNLLHGREGVTFYAKDEIEVDETLINSPAYVRATGALDGYDEFDPAVFGVSDRMAAAMTPEHRVFLEASWEVMEDASYDPERVRGEVGVYASTNPQSAALYSSPPDWVSAGPEVMDRSNAWLPDTITSNVLYYLGLTGEAVTVTAVCSGFHYAVHLACQSLLLGQTDMAIAGGVMVRLPQRRGYLWEEGRILSRDGHCRPFDANGTGSVLASGVAVVLLKPLPQAVADRDHIYATVKGTAINNNGISAMAYGLAQPERLSACIAGAMQAGDVAPETVSMYEANGFGMPITDSLEVHAAHLAFGKQSGTCSIGAVKGNIGHAGVVAGGSGAVKAAFALYHRSLPPTINLTELNEEIDFPRTPFVPQLEPAAWQPECGIRRAGITALGGGGYNAHLVLEEPPRPVEREPENRRPRIVTLSALDDAAVSRQRAALSSWLAEHSDARLDDIAYSLNLGRKALPSRWAAVISTRDELLEVLSGDGKSGRVSRFGQERRADLARFRRTEDGLALGSGDEMRDVQALTELAAAWVQGERVNFEVLHADERSHRISLPNYPFARRRFWRTDW
  stoichiometry N: 4
